Data taken from US11571484B2, “Compositions that target tumor-associated macrophages and methods of use therefor” (Sanford Burnham Prebys Medical Discovery Institute, priority 2017, dated 2023).
Ends that are not written are not given here. FAM = 5(6)-carboxyfluorescein; Ahx = NCCCCCC(=O)O

Tests used:
[1] = target: T1, recombinant mouse macrophage mannose receptor rmMMR/CD206 (Mus musculus, UniProt Q61830); experiment: Fluorescence anisotropy assay with mouse recombinant CD206; assay type: binding; conditions: 50 nM FAM peptide, 1 μM protein, 25 °C
T1 construct: purchased R&D Systems 2535-MM-050
T1 sequence (Q61830 20-1456): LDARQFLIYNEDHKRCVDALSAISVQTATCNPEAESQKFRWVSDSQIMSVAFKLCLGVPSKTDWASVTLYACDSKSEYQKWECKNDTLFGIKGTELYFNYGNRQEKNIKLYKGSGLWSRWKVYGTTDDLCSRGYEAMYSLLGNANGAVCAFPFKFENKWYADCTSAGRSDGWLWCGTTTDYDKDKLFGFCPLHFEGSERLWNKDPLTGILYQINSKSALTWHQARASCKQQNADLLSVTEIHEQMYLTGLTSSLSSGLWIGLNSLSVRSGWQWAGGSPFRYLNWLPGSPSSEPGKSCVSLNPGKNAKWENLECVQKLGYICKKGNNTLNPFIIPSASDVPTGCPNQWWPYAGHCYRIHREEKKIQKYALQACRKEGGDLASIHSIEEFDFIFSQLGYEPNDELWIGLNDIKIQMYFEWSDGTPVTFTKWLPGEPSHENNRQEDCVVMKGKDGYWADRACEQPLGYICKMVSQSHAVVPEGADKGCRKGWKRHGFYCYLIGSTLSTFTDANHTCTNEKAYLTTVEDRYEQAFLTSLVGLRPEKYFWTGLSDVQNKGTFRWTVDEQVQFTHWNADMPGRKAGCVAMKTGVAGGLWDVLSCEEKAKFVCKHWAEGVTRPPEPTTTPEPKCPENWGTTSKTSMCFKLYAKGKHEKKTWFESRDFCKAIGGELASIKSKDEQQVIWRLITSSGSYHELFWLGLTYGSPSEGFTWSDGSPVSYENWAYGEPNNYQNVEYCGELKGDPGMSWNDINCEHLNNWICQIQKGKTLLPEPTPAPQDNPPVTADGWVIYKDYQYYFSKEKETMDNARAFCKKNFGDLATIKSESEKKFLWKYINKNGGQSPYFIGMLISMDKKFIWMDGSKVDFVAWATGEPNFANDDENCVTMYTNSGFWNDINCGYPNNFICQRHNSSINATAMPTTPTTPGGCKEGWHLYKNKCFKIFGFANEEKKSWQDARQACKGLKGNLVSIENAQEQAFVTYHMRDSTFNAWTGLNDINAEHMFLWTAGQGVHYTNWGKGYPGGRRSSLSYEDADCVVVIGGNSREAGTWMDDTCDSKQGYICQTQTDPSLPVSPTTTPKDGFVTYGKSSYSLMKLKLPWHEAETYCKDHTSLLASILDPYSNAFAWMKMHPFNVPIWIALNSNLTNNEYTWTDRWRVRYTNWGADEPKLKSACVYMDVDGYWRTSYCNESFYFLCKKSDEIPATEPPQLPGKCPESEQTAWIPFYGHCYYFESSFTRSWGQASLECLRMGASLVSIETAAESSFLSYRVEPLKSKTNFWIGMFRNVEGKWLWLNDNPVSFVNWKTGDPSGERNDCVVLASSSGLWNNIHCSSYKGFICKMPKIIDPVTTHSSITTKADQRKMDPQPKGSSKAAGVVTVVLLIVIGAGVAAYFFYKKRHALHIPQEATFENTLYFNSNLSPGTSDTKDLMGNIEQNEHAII
Description: The stocks of fluorescent ligands (FAM-UNO, FAM-CSPGAK and FAM-CPMTDNE) in mQ water were stored at −20° C. […], 150 mM NaCl, 1 mM CaCl2, 0.1% Pluronic F-127, pH 7.4) on the day of experiment. The concentration of fluorescent ligands was determined by absorbance of FAM (E495=75000 M^−1 cm^−1).
The recombinant mouse macrophage mannose receptor rmMMR/CD206 (R&D Systems, catalog number: 2535-MM-050) and recombinant mouse CD163 (R&D Systems, catalog number: 7435-CD-050) were reconstituted at 1 mg/ml in IB, aliquoted and stored at −20° C. To generate linearized version of cyclic FAM-UNO peptide, the peptide at 1 mM concentration was preincubated for 24 h at room temperature in a dark place with 3 mM DTT and diluted with IB 2×10^5 times before the FA assay. The control experiment with FAM-CPMTDNE peptide (FIG. 22) was performed to rule out the possibility of disulphide bond formation, which could affect the binding properties of linear peptides. Initially, the peptide was preincubated in DMSO for 4 days at room temperature to enhance the disulphide bond formation, and then diluted in IB buffer with 3 mM DTT, and the disappearance of preformed dimer was observed as a change in FA signal.
In all experiments, FA signal measurements were done under pseudo first-order conditions with 50 nM singly labelled FAM peptides and 1 μM proteins. […] Assays were carried out in kinetic mode in a total volume of 30 μl at 25° C. on the PHERAstar (BMG Labtech, Germany) microplate reader using an optical module with excitation and emission filters of 485 nm (slit 10 nm) and 520 nm (slit 10 nm), respectively. Dual emission detection mode allows simultaneous recording of intensities that are parallel (l) and perpendicular (1) to the plane of excitation light. […] The background fluorescence (receptor and buffer components in the absence of fluorescent ligand) was subtracted independently from all intensity channels. FA signals at time t after initiation of binding reaction was calculated as parameters r(t) from the equation: […]

[2] = 4T1 tumor lysate, injected within 1 min
Description: High-performance liquid chromatography (Agilent 1200 series, USA)-mass spectrometry (SciexQ-Trap 4500, Canada) analysis was done using a C18 column (Kinetex 2.6 μm EVO C18 100×4.6 mm, Phenomenex, USA). Ionization was performed at 300° C. with declustering potential set 30 V. Chromatography gradient started with 2 min 5% acetonitrile in water, followed by linear increase to 95% acetonitrile in 10 min and finally 10 min isocratic flow of 95% acetonitrile in water. Both eluents, water and acetonitrile, contained 0.2% formic acid. Flow rate was 0.3 ml/min. Column temperature was maintained at 40° C. Autosampler temperature was set to 37° C. Retention times and m/z signals of FAM-UNO, were determined from 30 μM FAM-UNO solution in PBS. Tumor lysate was split into two aliquots of 200 μL in each. From one aliquot, 20 μL were injected and the LC-MS profile obtained. The second aliquot was mixed with 50 μL of 30 μM FAM-UNO in PBS and injected within 1 min to LC-MS and the LC-MS profile obtained.

FAM-UNO: FAM-labeled UNO peptide CSPGAKVRC (SEQ ID NO: 1); 5(6)-carboxyfluorescein with 6-aminohexanoic acid spacer at the N-terminus ({FAM-Ahx}-CSPGAKVRC; cysteine pairing not given here)
change in fluorescence anisotropy (interaction) with mouse recombinant CD206 [1]: did not cause a change in the fluorescence anisotropy
fate of the disulfide bridge on incubation with tumor lysate [2]: the disulfide bridge was reduced to yield a linear peptide

FAM-CSPGAK: FAM-labeled linear CSPGAK (SEQ ID NO: 6) (not fully specified; FAM label)
change in fluorescence anisotropy (interaction) with mouse recombinant CD206 [1]: clear time-dependent increase of anisotropy
